For one molecule, Kd results are on record in article PMC2873192 (Journal of the American Chemical Society, 2009).

For this experiment, the target named is T1, integrin-linked kinase (ILK) ankyrin repeat domain (ARD) (UniProt Q13418 1-171).
T1 sequence: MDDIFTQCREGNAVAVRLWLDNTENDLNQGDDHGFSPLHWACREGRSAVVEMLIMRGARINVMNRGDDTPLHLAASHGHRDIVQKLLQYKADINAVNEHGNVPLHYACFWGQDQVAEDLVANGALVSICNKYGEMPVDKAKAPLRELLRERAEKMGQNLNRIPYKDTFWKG
The experiment in a line: ITC. For orientation: ITC needs no label: the signal is the heat of the interaction.

B1: PINCH LIM1 domain (domain or fragment)
chain: MANALASATCERCKGGFAPAEKIVNSNGELYHEQCFVCAQCFQQFPEGLFYEFEGRKYCEHDFQMLFAPC
As for B1, the Kd (commonly the concentration at which binding is half-saturated) is ~68 nM.
